The text below walks through data of PMC7354924, “Repulsive guidance molecules lock growth differentiation factor 5 in an inhibitory complex” (Proceedings of the National Academy of Sciences of the …, 2020).

The stoichiometry N is the number of molecules, sites or subunits per partner or assembly.

Numbering of substitutions follows the chain as printed.

Assay [1] addresses T1, growth differentiation factor 5 (GDF5), wild type (UniProt P43026 382-501).
T1 construct: GDF5, disulfide-linked dimer; also called wild-type GDF5
T1 sequence (looked up): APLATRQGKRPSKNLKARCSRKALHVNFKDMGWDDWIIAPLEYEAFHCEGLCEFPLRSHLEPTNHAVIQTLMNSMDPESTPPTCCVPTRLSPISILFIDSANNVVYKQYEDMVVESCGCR
Put plainly: SPR; Biacore T200, 25 °C; GDF5 and BMP2 covalently linked to a CM5 chip by primary amine coupling, RGMs as analytes; 0.5 M NaCl, 20 mM Hepes pH 7.4, 0.05% Tween 20; equilibrium binding, 1:1 Langmuir isotherm; apparent affinity. To be noted: both partners purified. On the technique in general: SPR reads the build-up and loss of mass on a sensor chip optically.

The target in assay [2] is T2, bone morphogenetic protein 2 (BMP2) (UniProt P12643 283-396). Put plainly: cell-based or functional assay.
Assay [3] addresses T3, growth differentiation factor 5 (GDF5), wild type (human, UniProt P43026 28-501).
T3 construct: GDF5, human, UniProt P43026; Disulfide-linked dimer without glycans; also called BMP14; CDMP1
T3 sequence (looked up): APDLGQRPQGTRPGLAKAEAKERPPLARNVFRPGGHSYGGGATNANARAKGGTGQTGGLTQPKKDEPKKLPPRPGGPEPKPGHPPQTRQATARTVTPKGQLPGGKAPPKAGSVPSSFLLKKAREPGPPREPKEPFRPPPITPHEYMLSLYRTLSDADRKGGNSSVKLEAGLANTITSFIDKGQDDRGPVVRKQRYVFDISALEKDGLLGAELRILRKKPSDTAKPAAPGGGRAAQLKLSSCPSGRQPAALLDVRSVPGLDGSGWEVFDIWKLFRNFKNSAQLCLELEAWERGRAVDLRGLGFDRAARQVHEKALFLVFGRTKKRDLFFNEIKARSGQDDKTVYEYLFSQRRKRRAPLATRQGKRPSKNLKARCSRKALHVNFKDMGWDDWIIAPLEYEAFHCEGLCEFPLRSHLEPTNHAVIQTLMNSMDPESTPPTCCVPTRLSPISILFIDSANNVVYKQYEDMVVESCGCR
Put plainly: SPR; Biacore T200, 25 °C; GDF5 amine-coupled to a CM5 chip (830, 970 or 1370 RU); RGMBND variants or BSA as analytes; 0.5 M NaCl, 20 mM HEPES pH 7.4, 0.05% (v/v) Tween 20; Kd from the dose-dependency of equilibrium binding, 1:1 Langmuir isotherm. To be noted: both partners purified.

Assay [4] deals with T1, growth differentiation factor 5 (GDF5), …. Put plainly: SEC-MALS; RGMBND–GDF5 complex, 1 mg/mL, Superdex 200 HR 10/30, 0.5 M NaCl, 20 mM Hepes pH 7.5, 21 °C. As to conditions: both partners purified. For orientation: In gel filtration, larger molecules generally elute earlier.
Assay [5] has as its target T2, bone morphogenetic protein 2 (BMP2). Put plainly: SPR; Biacore T200, 25 °C; GDF5 and BMP2 covalently linked to a CM5 chip by primary amine coupling, RGMs as analytes; 0.5 M NaCl, 20 mM Hepes pH 7.4, 0.05% Tween 20; equilibrium binding, 1:1 Langmuir isotherm; apparent affinity. As to conditions: both partners purified.
The target in assay [6] is T4, GDF5 variant Tyr487Lys/Gln489Asp (UniProt P43026 28-501, Tyr487Lys | Gln489Asp).
T4 construct: GDF5 with Tyr487Lys and Gln489Asp
T4 sequence (looked up): T3 sequence (looked up) with Y460K, Q462D
Put plainly: SEC-MALS; RGMBND–GDF5(Tyr487Lys/Gln489Asp)–ActR2bECD complex, 1 mg/mL, Superdex 200 HR 10/30, 0.5 M NaCl, 20 mM Hepes pH 7.4, 21 °C. To be noted: both partners purified.

The target in assay [7] is T1, growth differentiation factor 5 (GDF5), …. Put plainly: cell-based or functional assay.

T2 sequence (P12643 283-396): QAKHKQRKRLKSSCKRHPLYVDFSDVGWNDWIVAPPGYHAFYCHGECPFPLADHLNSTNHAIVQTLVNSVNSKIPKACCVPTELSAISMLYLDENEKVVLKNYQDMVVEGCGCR

B1: N-terminal domain of human RGMC (RGMCND, Gln36–Pro145) (domain or fragment)
chain: ETGQCKILRCNAEYVSSTLSLRGGGSSGALRGGGGGGRGGGVGSGGLCRALRSYALCTRRTARTCRGDLAFHSAVHGIEDLMIQHNCSRQGPTAPPPPRGPALPGAGSGLPAP
modifications: Asn-linked glycans cut down to one N-acetylglucosamine for crystallization; kept fully glycosylated for binding assays
notes: Glu-Thr-Gly from the pHLsec vector, after the N-terminal secretion signal; human RGMC (Hemojuvelin), N-terminal domain, residues Gln36–Pro145 of UniProtKB Q6ZVN8-1; also called Hemojuvelin; HFE2; source: HEK-293T, transient transfection, secreted, purified (IMAC, SEC)
Take B1: the Kd in assay [1] amounted to 3.9 µM.

B2: RGMCND Gly99Arg (domain or fragment, human)
chain: B1 chain with G67R
notes: Glu-Thr-Gly from the pHLsec vector, after the N-terminal secretion signal; human RGMC, N-terminal domain, residues Gln36–Pro145 of UniProtKB Q6ZVN8-1, with Gly99Arg; Made by site-directed mutagenesis of the RGMCND construct; also called RGMC Gly99Arg; juvenile hemochromatosis-causing mutation; source: HEK-293T, transient transfection, secreted, purified (IMAC, SEC in SPR running buffer)
Take B2: the Kd in assay [1] is above 20 µM.

B3: soluble RGMC extracellular domain (RGMCECD) for the ProteOn SPR studies (domain or fragment, human, UniProt Q6ZVN8 36-400, looked up)
chain: QCKILRCNAEYVSSTLSLRGGGSSGALRGGGGGGRGGGVGSGGLCRALRSYALCTRRTARTCRGDLAFHSAVHGIEDLMIQHNCSRQGPTAPPPPRGPALPGAGSGLPAPDPCDYEGRFSRLHGRPPGFLHCASFGDPHVRSFHHHFHTCRVQGAWPLLDNDFLFVQATSSPMALGANATATRKLTIIFKNMQECIDQKVYQAEVDNLPVAFEDGSINGGDRPGGSSLSIQTANPGNHVEIQAAYIGTTIIIRQTAGQLSFSIKVAEDVAMAFSAEQDLQLCVGGCPPSQRLSRSERNRRGAITIDTARRLCKEGLPVEDAYFHSCVFDVLISGDPNFTVAAQAALEDARAFLPDLEKLHLFPSD
For the molecule B3, the “BMP2 (3 nM) BMP-responsive luciferase reporter in LLC-PK1 cells expressing full-length membrane-anchored RGMC” value in assay [2] was around 3 fold.

B4: N-terminal domain of human RGMA (RGMAND, Ser46–Ser139) (domain or fragment)
chain: ETGSPCKILKCNSEFWSATSGSHAPASDDTPEFCAALRSYALCTRRTARTCRGDLAYHSAVHGIEDLMSQHNCSKDGPTSQPRLRTLPPAGDSQERS
modifications: Asn-linked glycans cut down to one N-acetylglucosamine for crystallization; kept fully glycosylated for binding assays
notes: Glu-Thr-Gly from the pHLsec vector, after the N-terminal secretion signal; human RGMA, N-terminal domain, residues Ser46–Ser139 of UniProtKB Q96B86-1; source: HEK-293T, transient transfection, secreted, purified (IMAC, SEC)
As for B4, in assay [1], the Kd was 16.7 µM.

B5: N-terminal domain of human RGMB (RGMBND, Gln53-His136) (domain or fragment)
chain: ETGQCRIQKCTTDFVSLTSHLNSAVDGFDSEFCKALRAYAGCTQRTSKACRGNLVYHSAVLGISDLMSQRNCSKDGPTSSTNPEVTHGTKHHHHHH
In turn, B5 displayed a Kd in assay [3] of 1.8 µM.

B6: N-terminal domain of human RGMB (RGMBND, Gln53–His136) (domain or fragment)
chain: B5 chain
modifications: N-linked glycan on Asn120 (cut down to one N-acetylglucosamine for crystallization; kept fully glycosylated for binding assays); methylated for crystal form 2
Regarding B6, the entries for the “stoichiometry N” value in assay [4] and in assay [6] were 2 RGMB per disulfide-linked GDF5 dimer (2:2 by chains) and 2 RGMBND per GDF5 dimer (2:2:2 by chains), respectively. The values for the Kd in assay [5] and in assay [1] were 20.1 µM and 2.7 µM, respectively.

B7: RGMBND His106Asn (domain or fragment)
chain: B5 chain with H57N
B7 yielded a Kd in assay [3] above 150 µM.

B8: RGMBND His106Leu (domain or fragment)
chain: B5 chain with H57L
B8 registered a Kd in assay [3] above 200 µM.

B9: RGMBND Gly101Arg (domain or fragment)
chain: QCRIQKCTTDFVSLTSHLNSAVDGFDSEFCKALRAYAGCTQRTSKACRRNLVYHSAVLGISDLMSQRNCSKDGPTSSTNPEVTH
On to B9, for which the Kd in assay [1] was above 150 µM.

B10: extracellular domain of human RGMB (RGMBECD, Gln53–Ser411) (domain or fragment)
chain: ETGQCRIQKCTTDFVSLTSHLNSAVDGFDSEFCKALRAYAGCTQRTSKACRGNLVYHSAVLGISDLMSQRNCSKDGPTSSTNPEVTHDPCNYHSHAGAREHRRGDQNPPSYLFCGLFGDPHLRTFKDNFQTCKVEGAWPLIDNNYLSVQVTNVPVVPGSSATATNKITIIFKAHHGCTDQKVYQAVTDDLPAAFVDGTTSGGDSDAKSLRIVERESGHYVEMHARYIGTTVFVRQVGRYLTLAIRMPEDLAMSYEESQDLQLCVNGCPLSERIDDGQGQVSAILGHSLPRTSLVQAWPGYTLETANTQCHEKMPVKDIYFQSCVFDLLTTGDANFTAAAHSALEDVEALHPRKERWHIFPSSGTKHHHHHH
modifications: Asn-linked glycans cut down to one N-acetylglucosamine for crystallization
Regarding B10, the Kd in assay [1] came out at 8.8 µM. Moreover, the “GDF5 (30 nM) BMP-responsive luciferase reporter in LLC-PK1 cells expressing full-length membrane-anchored RGMB” value in assay [7] is around 3 fold.
